Results published in US20130089513A1 (MEDEXGEN, published 2013).

Biological target: T1, G-CSF receptor linked to Fc domain of human IgG (human, UniProt Q99062 25-627, limits assumed)
T1 sequence (looked up): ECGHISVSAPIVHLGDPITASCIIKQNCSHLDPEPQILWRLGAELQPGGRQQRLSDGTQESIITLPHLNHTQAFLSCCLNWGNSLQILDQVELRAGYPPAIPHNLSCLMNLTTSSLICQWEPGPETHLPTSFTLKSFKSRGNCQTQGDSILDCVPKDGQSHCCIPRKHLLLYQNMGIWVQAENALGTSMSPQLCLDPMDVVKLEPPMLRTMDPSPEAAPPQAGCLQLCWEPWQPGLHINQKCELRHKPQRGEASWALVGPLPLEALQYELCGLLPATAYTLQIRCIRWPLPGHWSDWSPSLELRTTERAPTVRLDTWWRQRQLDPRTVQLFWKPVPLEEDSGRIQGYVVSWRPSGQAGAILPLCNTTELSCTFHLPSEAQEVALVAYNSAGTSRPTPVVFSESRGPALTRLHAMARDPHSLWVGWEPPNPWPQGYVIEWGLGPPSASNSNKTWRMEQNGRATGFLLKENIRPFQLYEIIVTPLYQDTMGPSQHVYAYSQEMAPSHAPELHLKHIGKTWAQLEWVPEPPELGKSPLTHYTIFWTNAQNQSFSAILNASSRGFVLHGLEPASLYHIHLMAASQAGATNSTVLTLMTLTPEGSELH
Experiment: ELISA on coated G-CSF receptor-Fc, done like the TPO ELISA

Binder	EC50 (read off the curve) [ng/mL]
wild type G-CSF (ligand, cDNA from leukocytes of healthy people; expressed in CHO-K1 cells; also called G-CSF wild type) TPLGPASSLPQSFLLKCLEQVRKIQGDGAALQEKLCATYKLCHPEELVLLGHSLGIPWAPLSSCPSQALQLAGCLSQLHSGLFLYQGLLQALEGISPELGPTLDTLQLDVADFATTIWQQMEELGMAPALQPTQGAMPAFASAFQRRAGGVLVASHLQSFLEVSYRVLRHLAQP	~40
G-CSF-[F160V] (ligand, G-CSF mutein expressed in CHO-K1 cells) TPLGPASSLPQSFLLKCLEQVRKIQGDGAALQEKLCATYKLCHPEELVLLGHSLGIPWAPLSSCPSQALQLAGCLSQLHSGLFLYQGLLQALEGISPELGPTLDTLQLDVADFATTIWQQMEELGMAPALQPTQGAMPAFASAFQRRAGGVLVASHLQSVLEVSYRVLRHLAQP	~40
G-CSF-[F140V] (ligand, G-CSF mutein expressed in CHO-K1 cells; also called G-CSF-[F140VD]) TPLGPASSLPQSFLLKCLEQVRKIQGDGAALQEKLCATYKLCHPEELVLLGHSLGIPWAPLSSCPSQALQLAGCLSQLHSGLFLYQGLLQALEGISPELGPTLDTLQLDVADFATTIWQQMEELGMAPALQPTQGAMPAVASAFQRRAGGVLVASHLQSFLEVSYRVLRHLAQP	~60

Further lines, results first:

EC50 (read off the curve) [ng/mL]	Binder
~30	G-CSF F13V (ligand, used as CHO-K1 culture supernatant) cytokine chain: TPLGPASSLPQSVLLKCLEQVRKIQGDGAALQEKLCATYKLCHPEELVLLGHSLGIPWAPLSSCPSQALQLAGCLSQLHSGLFLYQGLLQALEGISPELGPTLDTLQLDVADFATTIWQQMEELGMAPALQPTQGAMPAFASAFQRRAGGVLVASHLQSFLEVSYRVLRHLAQP
~60	G-CSF F113V (ligand, used as CHO-K1 culture supernatant) cytokine chain: TPLGPASSLPQSFLLKCLEQVRKIQGDGAALQEKLCATYKLCHPEELVLLGHSLGIPWAPLSSCPSQALQLAGCLSQLHSGLFLYQGLLQALEGISPELGPTLDTLQLDVADVATTIWQQMEELGMAPALQPTQGAMPAFASAFQRRAGGVLVASHLQSFLEVSYRVLRHLAQP
